Data published in PMC5376981 (Scientific Reports, 2014).

Key:
FCR3-DBL3X-4ε = FCR3-DBL3X-4ε (Plasmodium falciparum FCR3, UniProt Q6UDW7, strain); assay: ELISA
3D7-DBL5ε = 3D7-DBL5ε (Plasmodium falciparum 3D7, UniProt Q8I639, strain); assay: ELISA
3D7-DBL6ε = 3D7-DBL6ε (Plasmodium falciparum 3D7, UniProt Q8I639, strain); assay: ELISA
FCR3-DBL6ε = FCR3-DBL6ε (Plasmodium falciparum FCR3, UniProt Q6UDW7, strain); assay: ELISA
[1] = target: full-length VAR2CSA recombinant protein (3D7-DBL1X-6ε) (Plasmodium falciparum 3D7, UniProt Q8I639, strain); assay: SPR

B1: VHH861 (VHH)
VHH: QVQLQESGGGLVQAGGSLRLSCAFSGSIFKMGWYRQAPGKERELVATITHIGVTDYAEFVKGRFTISRDNAKNTVYLLMNSLKPEDTAVYYCNVASRWPDYWGQGTQVTVSS
B1: binds (FCR3-DBL3X-4ε); no binding (tested: 0.3 µg/ml) (3D7-DBL5ε); no binding (tested: 0.3 µg/ml) (3D7-DBL6ε). For the same binder, the binding result (FCR3-DBL6ε) was “no binding (tested: 0.3 µg/ml)”, the Kd [1] was 35 nM and the koff [1] was 0.001 s⁻¹. It also gave a kon [1] of 29000 M⁻¹ s⁻¹.
